Assay results published in the supplement of paper PMC7125110.
± gives the standard error. Fewer inactive variants are shown than the library holds.

B1: glmS ribozyme (parent)
chain: AUAAAAGCGCCAGAACUACAGAAAUGUAGUUGACGAGGAGGAGGUUUAUCGAAUUUUCGGCGGAUGCCUCCAAA

What was measured:
Settings in all cases: with glucosamine-6-phosphate
glucosamine-6-phosphate [1] = variants of: B1; assay: self-cleavage kobs at 640 uM GlcN6P; higher = faster cleavage; RNA array
Method in brief: (§1)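 Barcoded ribozyme variants on sequenced MiSeq chips were transcribed in situ by E. coli RNA polymerase and followed at 37 °C through a hybridised Cy3 probe. Glucosamine-6-phosphate at 40 μM to 10 mM in HEPES/KCl/Mg(OAc)2 buffer was flowed in, and tiles were imaged over ~14 h. Signals were normalised to baseline and to non-cleaving reference variants, and per-tile medians were fit to one- or two-exponential decays to give kobs. Weighted Michaelis–Menten fits across concentrations gave kcat and KM.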

glucosamine-6-phosphate [2] = variants of: B1; assay: self-cleavage kobs at 2500 uM GlcN6P; higher = faster cleavage; RNA array
Method in brief: as §1

glucosamine-6-phosphate [3] = variants of: B1; assay: self-cleavage kobs at 10000 uM GlcN6P; higher = faster cleavage; RNA array
Method in brief: as §1

| Variant | self-cleavage kobs at 640 uM GlcN6P (glucosamine-6-phosphate [1]) [s⁻¹] | self-cleavage kobs at 2500 uM GlcN6P (glucosamine-6-phosphate [2]) [s⁻¹] | self-cleavage kobs at 10000 uM GlcN6P (glucosamine-6-phosphate [3]) [s⁻¹] |
| --- | --- | --- | --- |
| AUAAAAGUGCCAGAACUACAGAAAUGUAGUUGUCGAGGAGGAGGUUUAUCGAAUUUUCGUCGGAUGCCUCCAAA [C8U A33U G60U] | < 1e-05 | < 1e-05 | – |
| AUAAAAGUGCCAAAACUACAGAAAUGUAGUUGACAAGAAGGAGGUUUAUCGAAUUUUCGGCGAAUGCUUCCAAA [C8U G13A G35A G38A G63A C68U] | 0.001 ± 0.00031 | – | – |
| AUAAAAGUGCCAGAACUACAGAAAUGUAGUUGCCGAGGACGAGGUUUAUCGAAUUUUCGGCAGAUGCCUUCAAA [C8U A33C G40C G62A C70U] | < 1e-05 | – | – |
| AUAAAAGGGCCAGAACUACAGAAAUGUAGUUGACGAGGAGGAGGUUUAUCGAAUUUUCGGCGGAUGUCUGCAAA [C8G C67U C70G] | < 1e-05 | – | – |
| AUAAAAGGGACAGAACUACAGAAAUGUAGUUGACGAGGAGAAGGUUUAUCGAAUUUUCGGCGGAUGCCUCCAAA [C8G C10A G41A] | < 1e-05 | < 1e-05 | – |
| AUAAAAGGGCCAGAACUACAGAAAUGUAGUUGUCGAGGAGUAGGUUUAUCGAAUUUUCGGCGGAUGCCUCCAAA [C8G A33U G41U] | < 1e-05 | – | – |
| AUAAAAGGGCCAGAACUACAGAAAUGUAGUUGACAAGGAGGAGGUUUAUCGAAUCUUCGUCGGAUGACUCCAAA [C8G G35A U55C G60U C67A] | < 1e-05 | < 1e-05 | – |
| AUAAAAGGGCCAGAACUACAGAAAUGUAGUUUACGAGUAGGAGAUUUAUCGAAUUUUCGGCGGAUGCCUCCAAA [C8G G32U G38U G44A] | < 1e-05 | – | – |
| AUAAAAGUGCCAGAUCUACAGAAAUGUAGUUGACGAGGAGGAGGUGUAUCAAAUUUUCGGCGGAUACCUCCAAA [C8U A15U U46G G51A G66A] | < 1e-05 | – | – |
| AUAAAAGGGCCAGAACUACAGAAAUGUAGUUGACAAGGAGGAGCUUUAUCGAAUUUUCGGCGGAUGCCUCCAAA [C8G G35A G44C] | < 1e-05 | – | < 1e-05 |
| AUAAAAGUGCCACCACUACAGAAAUGUAGUUGACGAGGAGGAGGUUUAUCGAAUUUUCGGCGGAUGCCUCCAAA [C8U G13C A14C] | < 1e-05 | < 1e-05 | – |
| AUAAAAGUGCCAGAAAUACAGAAAUGUAGUUGACGAGGAGGAGGUUUAUCGAAUUUUCGGCUGAUGCCUCCAAA [C8U C16A G62U] | < 1e-05 | < 1e-05 | – |
| AUAAAAGGGCCACAACUACAGAAAUGUAGUUGACGAGGAGGAGGUUUAUCGAAUUUUCAGCGGAUGCCGCCAAA [C8G G13C G59A U69G] | < 1e-05 | – | – |
| AUAAAAGGGCCAGAACUACAGAAAUGUAGUUAACGAGGGGGAGGUUUAUCGAAAUUUCGGCGGAUGCCUCCAAA [C8G G32A A39G U54A] | < 1e-05 | < 1e-05 | – |
| AUAAAAGGGCCACAACUACAGAAAUGUAGUUGACGAGGAAGAGGUUUAUCGAAUUAUCUGCGGAUGCCUCCAAA [C8G G13C G40A U56A G59U] | < 1e-05 | – | – |
| AUAAAAGUGCAAGAACUACAGAAAUGUAGUUGACGAGGAGGAGGUUUAUCGAAUUUUCGGCGGAUGCCUCCAAA [C8U C11A] | < 1e-05 | – | < 1e-05 |
| AUAAAAGUGCCAGAACUACAGAAAUGUAGUUGACGAGGAGGAGGUUUAUCGAAUUUUUGGCCGUUGCCUCCAAA [C8U C58U G62C A64U] | < 1e-05 | < 1e-05 | – |
| AUAAAAGGGCCAGAACUACAGAAAUGUAGUUGACGAGGAGGAGGUUUAUGGUAUUUUCGGCGGAUGCCUCCAAA [C8G C50G A52U] | < 1e-05 | – | – |
| AUAAAAGUACCAGAACUACAGAAAUGUAUUUGACGAGGAGGAGGUUUAUCGAAUUUUUGGCGGAUGCCUCCAAA [C8U G9A G29U C58U] | < 1e-05 | < 1e-05 | – |
| AUAAAAGGGUCAGGACUACAGAAAUGUAGUUGAAGAGGAGGAGGUUUAUCGAAUUUUCGGCGGAUGCCGCCAAA [C8G C10U A14G C34A U69G] | 0.000745 ± 0.00024 | < 1e-05 | – |
| AUAAAAGUCCCAGAACUACAGAAAUGUAGUUGACGAGGAGGAGGUUUAUAUAAUUUUCGUCGGAUGCCUCCAAA [C8U G9C C50A G51U G60U] | < 1e-05 | – | – |
| AUAAAAGGGCCAGAACUACAGAAAUGUACUUGACGAGGAGGGGGUUUAUCCAAUUUUGAGCGGAUGCCUCCAAA [C8G G29C A42G G51C C58G G59A] | < 1e-05 | – | – |
| AUAAAAGUGUUAGAACUACAGAAAUGUAGUUGACGAGGAGGAGGUUUAUCCAAUUUUCGGCGGAUGCCUCCAAA [C8U C10U C11U G51C] | < 1e-05 | – | – |

| Variant | self-cleavage kobs at 640 uM GlcN6P (glucosamine-6-phosphate [1]) [s⁻¹] | self-cleavage kobs at 2500 uM GlcN6P (glucosamine-6-phosphate [2]) [s⁻¹] | self-cleavage kobs at 10000 uM GlcN6P (glucosamine-6-phosphate [3]) [s⁻¹] |
| --- | --- | --- | --- |
| AUAAAAGUGCCAGAACUAAAGAAAUGUAGUUGACAUGGAGGAGGUUUAUCUAAUUUUCGGCGGAUGCCUCCAAA [C8U C19A G35A A36U G51U] | < 1e-05 | – | – |
| AUAAAAGUGCCAGAACUACAGAAAUGUAGUUGACGAGGAGGAGGUUUAUCGAAUUUUAGGCGGACGCCUCCAAA [C8U C58A U65C] | < 1e-05 | < 1e-05 | – |
| AUAAAAGUGCCAGAAAUACAGAAAUGUAGUUGACCUGGAGGAGGUUUAUCGAAUUUUCGGCGGAUGCCUCGAAA [C8U C16A G35C A36U C71G] | < 1e-05 | < 1e-05 | – |
| AUAAAAGUGCCAAAACUACAGAAAUGUAGUUGACGAGGAGGAGGUUUAUCGAAUUUUCGGCGGAUUCCUCCAAA [C8U G13A G66U] | < 1e-05 | < 1e-05 | – |
| AUAAAAGGGCCAGAACUACAGAAAUGUAGUUGACGUGGAGGAGGUUUAUCGAAUUUUCGGCGGAUGCCUUCAAA [C8G A36U C70U] | < 1e-05 | – | – |
| AUAAAAGUGCCAGAAUUACAGAAAUGUAGUUGACGAGGAGGAGGUUUAUCGAAUUUUCGGCGGAUGCCUCAAAA [C8U C16U C71A] | < 1e-05 | – | – |
| AUAAAAGGGCCAGAACUACAGAAAUGUAGUUGACGAGGAGGAGGUUUAUCGAAUUUUUGGCGGAUGCCUCCAAA [C8G C58U] | < 1e-05 | < 1e-05 | < 1e-05 |
| AUAAAAGGGCUAGAACUACAGAAAUGUAGUUUACGAGGAGGAGGUUUAUCGAAUUUUCUGCGGAUGCCUCCAAA [C8G C11U G32U G59U] | < 1e-05 | < 1e-05 | – |
| AUAAAAGUGCCAGAACUACAGAAAUGUAGUUGACGAGGAGGAGGUUUAUAGAAUUUUCGGCGGAUGCCUCCAAA [C8U C50A] | < 1e-05 | < 1e-05 | < 1e-05 |
| AUAAAAGGGCCAGAACUACAGAAAUGUAGUUUACGAGGAGGAGGUUUAUCGAAUUUUCGGCGGAUGCCUCCAAA [C8G G32U] | < 1e-05 | < 1e-05 | – |
| AUAAAAGGGCCAGAACUACAGAAAUGUAGUUUACGAGGAGGAGCUUUAUCGAAUUUUCGGCGGAUGCCUCCAAA [C8G G32U G44C] | < 1e-05 | – | – |
| AUAAAAGGGCCAGAACUACAGAAAUGUAGUUGACGAGGAGGAGGUUUAUCGAACUUUCGACGGAUGCCUCCAAA [C8G U54C G60A] | < 1e-05 | < 1e-05 | – |
| AUAAAAGUGCCAGAGUUACAGAAAUGUAGUUGACGAGGAGGAGGUUUAUCGAAUCUUCGGCGGAUGCCUCCAAA [C8U A15G C16U U55C] | < 1e-05 | – | – |
| AUAAAAGGGCCAGAAUUACAGAAAUGUAGUUGACGAGGAGGAGGUUUAUCGAAUUUACGGCGGAUGCCUCCAAA [C8G C16U U57A] | < 1e-05 | < 1e-05 | – |
| AUAAAAGGGCCAGAACUACAGAAAUGUAGUUGACGAGUAGAAGGUGUAUCGAAUUUUCAGCGGAUGCCUCCAAA [C8G G38U G41A U46G G59A] | < 1e-05 | < 1e-05 | – |
| AUAAAAGUACCAGAUCUACAGAAAUGUAGUUGACGAGGGGGAGGUUUAUCGAAUUUUCGGCGGAUGCCUCCAAA [C8U G9A A15U A39G] | < 1e-05 | < 1e-05 | – |
| AUAAAAGUGCCAGAACUACAGAAAUGUAGUUGAUGAGGAGGUGGUUUAUCGAAUUUUCGGCGGAAGGCUCCAAA [C8U C34U A42U U65A C67G] | 0.000104 ± 4.1e-05 | 5.58e-05 ± 2.1e-05 | – |
| AUAAAAGGGCCAGAACUACAGAAAUGUAGUUAACGAGGAGGAGGUCUAUCGAUUUUUCGGCGCAUGCCUCCAAA [C8G G32A U46C A53U G63C] | < 1e-05 | < 1e-05 | – |
| AUAAAAGGGCCAGAACUACAGAAAUGUAGUUGACGAGGAGGAAGUGUAUCGAAUUUUCGGCGGAUGCCUCCAAA [C8G G43A U46G] | < 1e-05 | – | < 1e-05 |
| AUAAAAGGCCCAGAACUACAGAAAUGUAGUUGACGAGGCGGAGGUUUAUCGAAUUUUCGGCGGAUGCCUCCAAA [C8G G9C A39C] | < 1e-05 | < 1e-05 | – |
| AUAAAAGUGCCAGAACUACAGAAAUGUAGUUGUCGAGGAGGAGGUGUAUCGAGUAUUCGGCGGAUGCCUCCAAA [C8U A33U U46G A53G U55A] | < 1e-05 | < 1e-05 | – |
| AUAAAAGGGCCAGAACUACAGAAAUGUAGUUGACGAGGUGGAGGUGUAUCGAAUUUUCGGCGGAUGCCGCCAAA [C8G A39U U46G U69G] | < 1e-05 | < 1e-05 | – |
